B1: Nuclear receptor subfamily 1 group D member 2, residues 103 to 171; numbered along this chain, Q14995 (parent)
chain: CKVCGDVASGFHYGVHACEGCKGFFRRSIQQNIQYKKCLKNENCSIMRMNRNRCQQCRFKKCLSVGMSR

Variants of: B1
Assay: abundance fitness (aPCA) (normalised: wild type 0, dead -1); higher = more abundant; growth selection in yeast, the domain comes from the species named
Conditions: Homo sapiens

Abundance fitness, by site and new letter:
G23: D 0.195; R -0.087; V -0.041
K36: D -0.439; S 0.137; G 0.092; Q -0.305; L -0.459; I -0.509; A -0.172; T -0.292; M -0.267; V -0.26; E 0.219; W -0.33; P -0.199
E42: F -0.809; C -0.592; K -0.109; D -0.025; R -0.639; M -0.008; Q -0.23; W -0.642; S -0.172; G 0.13; V -0.798; T -0.671; L -0.847; N -0.004; H -0.231; Y -0.674
L39: H -0.167; K -0.128; S 0.165; Q -0.068; T -0.121; M 0.1; D 0.321; N 0.018; F -0.57; Y -0.02; I 0.161; A 0.084; G -0.163; E 0.262; W -0.559; P -0.106
I33: Q -0.553; W -0.668; R -0.531; S -0.527; D -0.708; V -0.213; M -0.35; Y -0.181; A -0.377; G -0.338; P -0.672; H -0.493; E -0.424; C -0.591; F -0.38; L -0.065
A17: S -0.346; P -0.962; M -0.89; R -0.887; Q -0.902; C 0.092; W -0.702; V -0.222; N -0.422; L -0.666; E -0.805; T -0.392
S45: K -0.646; I -0.039; Y -0.045; R -0.259; V -0.056; C -0.03; N 0.261; L -0.183; A -0.424; P -0.166; W -0.54; G -0.119; T -0.133; M 0.156
R27: F -0.581; M 0.073; W 0.091; S -0.51; H 0.305; E 0.216; G -0.433; V 0.094; D 0.126; T -0.034; N 0.237; K -0.275; L -0.154
N43: T -0.215; C -0.083; R -0.12; A 0.01; S -0.317; Q -0.061; P -0.472; V -0.181; K -0.231; W -0.79; M -0.373; G -0.011; E 0.017; L -0.115; H -0.37; F -0.361; D -0.222
N32: T -0.414; L -0.706; K -0.401; G -0.074; Y -0.776; V -0.672; I -0.329; S -0.381; A -0.343; C -0.612; E 0.176; H -0.566; M -0.44; W -0.891; F -0.408; Q 0.144; D -0.199; R -0.423
G20: S 0.212; D 0.531
F25: Q -0.797; S -0.609; R -0.646; D -0.696; Y -0.481; W -0.332; E -0.634; A -0.72; N -0.647; G -0.86; L -0.752; V -0.785; P -0.836; I -0.152
C44: Y -0.183
F24: N -0.908; G -0.798; W -0.723; K -1.04; A -1.09; E -0.68; T -0.422; P -0.52; V -0.81; Q -0.664; L -0.272; S -0.661; I -1.02; R -0.924
Q31: E 0.197; S -0.207; R -0.289; M -0.262; W -0.465; K -0.391; V -0.623; C -0.551; A -0.51; N -0.475; G -0.152; D -0.278; T -0.238; P -0.457; L -0.169; F 0.04; I -0.635; Y -0.276
C38: S -0.579; F -0.864; L -1.01; A -0.74; T -0.768; W -0.521; E -0.857; G -0.836; Y -0.785; Q -0.803; V -0.551; D -0.894; P -0.682; R -0.842
R26: W 0.408; M 0.319; I 0.342; T 0.092; Q 0.214; Y -0.246; G -0.092; L -0.226; N 0.135; F -0.326; V -0.383; H -0.359; E -0.032; K -0.349; A 0.133
C18: M -0.537; W -0.752; R -0.751; I -0.355; K -0.829; S -0.812; G -0.813; Q -0.874; A -0.515; L -0.692; V -0.79; E -0.847
N41: V -0.446; A -0.219; S -0.022; D -0.225; F -0.717; L -0.348; E -0.063; G -0.036; M -0.586; Q -0.285; Y -0.492; P -0.264; C -0.738; T -0.047; H -0.638; W -0.664
I46: K -0.789; A -0.041; E -0.437; M -0.093; L -0.282; G -0.258; H -0.162; F -0.613
K40: D 0.115; N 0.246; L -0.042; C -0.615; T 0.1; R -0.029; S 0.092; Q 0.206; H -0.12; P -0.532; F 0.09; M -0.059; Y 0.26; W 0.227; G 0.202; A 0.106; V -0.273
I29: M -0.14; A -0.723; W -0.412; V -0.17; F -0.081; Y -0.813; Q -0.339; S -0.7; K -0.98; G -0.821; R -0.601; T -0.282; L -0.19; C -0.388; E -0.675; N -0.058
Q30: R -0.557; K -0.195; D 0.022; I -0.553; S -0.364; A 0.04; M -0.521; V -0.092; F -0.634; T 0.126; P -0.523; L -0.023; N -0.43
K37: S 0.011; I -0.279; D 0.255; L -0.473; R -0.391; V -0.387; E -0.04; P 0.27; H -0.241; W -0.225; Y -0.631; C -0.495; Q -0.075; M 0.279; T -0.234; N 0.375; A 0.064
E19: W -0.325; M -0.884; R -0.058; S -0.583; P -0.465; Y -0.394; D 0.114; Q -0.699; V -0.669; G -0.63; L -0.858; T -0.478
S28: V -0.419; M -0.291; C 0.179; K -0.801; W -0.733; G -0.748; T 0.24

From the Human Domainome abundance scans (Beltran et al. 2025)
